Numbering of substitutions follows the chain as printed.

The labels stand for the following.
B1: 1.1.35-1 (antibody, human IgG1, kappa, V domains shown)
VH: QVQLLQSGAAVTKPGASVRVSCEASGYNIRDYFIHWWRQAPGQGLQWVGWINPKTGQPNNPRQFQGRVSLTRHASWDFDTFSFYMDLKALRSDDTAVYFCARQRSDYWDFDVWGSGTQVTVSS
VL: DIQMTQSPSSLSASVGDRVTITCQANGYLNWYQQKPGKAPKLLIYDGSNLETGVPSRFSGSRWGQEYTLTISSLQPEDIATYFCQVYEFVGPGTNLDIKR
B2: 1.12.15-1 (antibody, human IgG1, kappa)
heavy: QVQLLQSGAAVTKPGASVRVSCEASGYNIRDYFIHWVRQAPGQGLQWVGWINPKTGQPNNPRQFQGRVSLTRHASWDFDTFSFYMDLKALRSDDTAVYFCARQRSDYWDFDVWGSGTQVTVSSASTKGPSVFPLAPSSKSTSGGTAALGCLVKDYFPEPVTVSWNSGALTSGVHTFPAVLQSSGLYSLSSVVTVPSSSLGTQTYICNVNHKPSNTKVDKKVEPKSCDKTHTCPPCPAPELLAGPDVFLFPPKPKDTLMISRTPEVTCVVVDVSHEDPEVKFNWYVDGVEVHNAKTKPREEQYNSTYRVVSVLTVLHQDWLNGKEYKCKVSNKALPLPEEKTISKAKGQPREPQVYTLPPSREEMTKNQVSLTCLVKGFYPSDIAVEWESNGQPENNYKTTPPVLDSDGSFFLYSKLTVDKSRWQQGNVFSCSVLHEALHSHYTQKSLSLSPGK
light: DIQMTQSPSSLSASVGDTVTITCQANGYLNWYQQRRGKAPKLLIYDGSKLERGVPSRFSGRRWGQEYNLTINNLQPEDIATYFCQVYEFFVPGTRLDLKRTVAAPSVFIFPPSDEQLKSGTASVVCLLNNFYPREAKVQWKVDNALQSGNSQESVTEQDSKDSTYSLSSTLTLSKADYEKHKVYACEVTHQGLSSPVTKSFNRGEC
B3: 1.11.1-1 (antibody, human IgG1, kappa)
heavy: B2 heavy with I34M, V37W, F83A
light: B2 light with F90V
B4: 1.9.1-1 (antibody, human IgG1, kappa)
heavy: B2 heavy with L5V, A10E, T12K, E23K, V37W
light: B2 light with F90V
B5: 1.6.1-1 (antibody, human IgG1, kappa)
heavy: B2 heavy with A10E, V37W
light: B2 light with F90V
B6: 1.12.17-1 (antibody, human IgG1, kappa, V domains shown)
VH: B1 VH with W37V
VL: DIQMTQSPSSLSASVGDTVTITCQANGYLNWYQQRRGKAPKLLIYDGSKLERGVPSRFSGRRWGQEYNLTINNLQPEDIATYFCQVYEFFGPGTRLDLKR
B7: 1.2.1-1 (antibody, human IgG1, kappa)
heavy: B2 heavy with A10E, T12K, V37W, Q118M
light: B2 light with F90V
B8: 1.8.1-1 (antibody, human IgG1, kappa)
heavy: B2 heavy with L5V, A10E, V37W
light: B2 light with F90V
B9: 1.10.1-1 (antibody, human IgG1, kappa)
heavy: B2 heavy with I34M, V37W
light: B2 light with F90V
B10: 1.1.36-1 (antibody, human IgG1, kappa)
heavy: B2 heavy with V37W
light: DIQMTQSPSSLSASVGDRVTITCQANGYLNWYQQKPGKAPKLLIYDGSNLETGVPSRFSGSRWGQEYTLTISSLQPEDIATYFCQVYEFVTPGTNLDIKRTVAAPSVFIFPPSDEQLKSGTASVVCLLNNFYPREAKVQWKVDNALQSGNSQESVTEQDSKDSTYSLSSTLTLSKADYEKHKVYACEVTHQGLSSPVTKSFNRGEC
B11: 1.13.15-1 (antibody, human IgG1, kappa)
heavy: B2 heavy with I34M
light: B2 light
B12: 1.13.17-1 (antibody, human IgG1, kappa, V domains shown)
VH: B1 VH with I34M, W37V
VL: B6 VL
B13: 1.3.1-1 (antibody, human IgG1, kappa)
heavy: B2 heavy with Q3S, V37W
light: B2 light with F90V
B14: 1.5.1-1 (antibody, human IgG1, kappa)
heavy: B2 heavy with L5V, E23K, V37W
light: B2 light with F90V
B15: 1.15.1-1 (antibody, human IgG1, kappa)
heavy: B2 heavy with V37W, T55W
light: B2 light with F90V
B16: 1.4.1-1 (antibody, human IgG1, kappa)
heavy: B2 heavy with L5V, V37W
light: B2 light with F90V
B17: 1.7.1-1 (antibody, human IgG1, kappa)
heavy: B2 heavy with A10E, T12K, V37W
light: B2 light with F90V
B18: 1.14.17-1 (antibody, human IgG1, kappa, V domains shown)
VH: B1 VH with I34M, W37V, F83A
VL: B6 VL

The first assay addresses gp120 Bal (HIV (Bal)). The assay can be described thus: single-point ELISA at EC50 conc. of A-1. A general note: In an ELISA, binding on a coated surface is turned into a signal by an enzyme label.
For B1, the “ELISA A450” value amounted to 0.96 A450.
For the molecule B2, the “ELISA A450” value came to 0.69 A450.
Same read-out and setting: the result for B3 reads 0.93 A450.
On to B4, for which the “ELISA A450” value is 1.08 A450.
Regarding B5, the “ELISA A450” value was 0.95 A450.
As for B6, the “ELISA A450” value was found to be 0.9 A450.
The same measure, in the same setting: the result for B7 reads 0.93 A450; that for B8, 0.86 A450.
With B9, the “ELISA A450” value was 0.95 A450.
B10: the “ELISA A450” value came to 0.93 A450.
On to B11, for which the “ELISA A450” value came out at 0.7 A450.
Turning to B12, the “ELISA A450” value is 1.02 A450.
Regarding B13, the “ELISA A450” value was 0.97 A450.
On to B14, for which the “ELISA A450” value is 0.92 A450.
The same measure, in the same setting: the result for B15 reads 0.87 A450; that for B16, 1.04 A450; that for B17, 0.98 A450.
Consider B18, for which the “ELISA A450” value turned out to be 0.89 A450.

In a further assay the target is gp120 CAAN (HIV (CAAN)). The assay can be described thus: single-point ELISA at EC50 conc. of A-1.
For B1, the “ELISA A450” value was determined as 0.75 A450.
On the same count and under the same terms, then B2, with 0.63 A450.
Take B3: the “ELISA A450” value stood at 0.75 A450.
On to B4, for which the “ELISA A450” value turned out to be 0.98 A450.
As for B5, the “ELISA A450” value came to 0.9 A450.
Take B6: the “ELISA A450” value was determined as 0.84 A450.
As to B7, the “ELISA A450” value turned out to be 1.01 A450.
B8: the “ELISA A450” value worked out at 0.9 A450.
In the case of B9, the “ELISA A450” value turned out to be 0.94 A450.
For B10, the “ELISA A450” value is 0.88 A450.
With B11, the “ELISA A450” value is 0.6 A450.
On to B12, for which the “ELISA A450” value stood at 0.78 A450.
In the case of B13, the “ELISA A450” value was 0.94 A450.
In the case of B14, the “ELISA A450” value came out at 1.07 A450.
On to B15, for which the “ELISA A450” value is 1.38 A450.
Turning to B16, the “ELISA A450” value was 0.96 A450.
The same measure, in the same setting: the result for B17 reads 1.04 A450; that for B18, 0.43 A450.

In another assay the target is gp120 SHIV SF162 P3 (SHIV SF162 P3). As to the kind of experiment: single-point ELISA at EC50 conc. of A-1.
On to B1, for which the “ELISA A450” value came out at 0.72 A450.
B2: the “ELISA A450” value was 0.53 A450.
Consider B3, for which the “ELISA A450” value is 0.57 A450.
The same measure, in the same setting: then B4, with 1.23 A450; and B5, with 1.1 A450.
Turning to B6, the “ELISA A450” value stood at 0.75 A450.
Regarding B7, the “ELISA A450” value was 1.02 A450.
On to B8, for which the “ELISA A450” value turned out to be 0.94 A450.
In the case of B9, the “ELISA A450” value was 1.03 A450.
Still for that read-out and setting: the result for B10 reads 0.72 A450; that for B11, 0.52 A450.
For the molecule B12, the “ELISA A450” value worked out at 0.69 A450.
On the same count and under the same terms, then B13, with 1.13 A450; and B14, with 1.15 A450; and B15, with 1.24 A450.
As for B16, the “ELISA A450” value was 1.19 A450.
With B17, the “ELISA A450” value stood at 1.08 A450.
On the same count and under the same terms, then B18, with 0.24 A450.

Another assay deals with BSA (UniProt P02769 25-607). The assay can be described thus: single-point ELISA, BSA control.
As for B1, the “ELISA A450” value stood at 0.08 A450.
Regarding B2, the “ELISA A450” value was found to be 0.06 A450.
Consider B3, for which the “ELISA A450” value was 0.09 A450.
Consider B4, for which the “ELISA A450” value was 0.06 A450.
In the case of B5, the “ELISA A450” value came out at 0.06 A450.
Consider B6, for which the “ELISA A450” value came to 0.06 A450.
In the case of B7, the “ELISA A450” value amounted to 0.07 A450.
Consider B8, for which the “ELISA A450” value is 0.06 A450.
B9: the “ELISA A450” value came to 0.06 A450.
Still for that read-out and setting: the result for B10 reads 0.06 A450.
As for B11, the “ELISA A450” value is 0.06 A450.
As for B12, the “ELISA A450” value was 0.06 A450.
B13: the “ELISA A450” value amounted to 0.06 A450.
The same measure, in the same setting: the result for B14 reads 0.06 A450.
On to B15, for which the “ELISA A450” value amounted to 0.06 A450.
Turning to B16, the “ELISA A450” value worked out at 0.06 A450.
On the same count and under the same terms, then B17, with 0.06 A450; and B18, with 0.1 A450.

For the origin of these results see patent US20240034774A1 (Gilead, published 2024).
